Laboratory results reported in patent publication US20220403048A1, “BINDING MOLECULES TO ARGINASE II [ARG2]” (Cancer Research Technology Limited, priority 2019, published 2022).

Columns and labels:
[1] = biological target: T1, recombinant human trimeric ARG2 enzyme (Homo sapiens, UniProt P78540, E275H/R327K); test: Direct binding HTRF assay, human trimeric ARG2; conditions: purified scFv, FIG. 1A
T1 construct: His10 (after a GGG linker) (C); made in house; host or cells: E. coli BL21 (DE3)
T1 sequence (P78540 with tags, fused parts or gaps E275H/R327K): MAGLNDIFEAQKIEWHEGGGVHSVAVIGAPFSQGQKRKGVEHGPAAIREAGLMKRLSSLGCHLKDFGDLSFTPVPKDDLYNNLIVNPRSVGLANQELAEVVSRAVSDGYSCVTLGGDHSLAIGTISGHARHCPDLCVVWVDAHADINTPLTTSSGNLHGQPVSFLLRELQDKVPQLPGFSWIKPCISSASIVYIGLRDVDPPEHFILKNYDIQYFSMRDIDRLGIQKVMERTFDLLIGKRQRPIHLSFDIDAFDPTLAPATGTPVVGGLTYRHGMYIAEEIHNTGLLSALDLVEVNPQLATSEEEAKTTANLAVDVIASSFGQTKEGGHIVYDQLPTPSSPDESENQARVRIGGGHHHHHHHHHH
Description: Unpurified scFv from periplasmic preparations were screened in a homogeneous time-resolved fluorescence (HTRF™, CisBio Bioassays, France) binding assay using a Pherastar plate reader (BMG Labtech, Germany). In this assay, binding of unpurified scFv to recombinant human trimeric ARG2 enzyme was assessed by measuring the fluorescence resonance energy transfer (FRET) between the c-myc tagged scFv and the biotinylated enzyme using streptavidin cryptate and anti-c-myc-XL665 detection reagents (CisBio International, France; cat: 610SAKLB and 61 MYCXLB respectively). […] Assay plates were incubated overnight at 4° C. prior to reading time resolved fluorescence on a Pherastar plate reader ([…]) using an excitation wavelength of 320 nm and measuring the emission at 620 nm and 665 nm (100 flashes).
Data were analysed by calculating % Delta F values for each sample. % Delta F was determined according to equation 1.
The scFv with unique protein sequences were expressed in E. coli and purified by affinity chromatography (essentially as described (Bannister et al., 2006)). The ARG2 binding profile of each purified scFv was determined by testing a dilution series of the purified scFv in the HTRF™ assay described in section 1.4, substituting the unpurified scFv periplasmic preparation with the purified scFv. […] Data were analysed by calculating the % Delta F values as described in section 1.4. […]

[2] = biological target: T2, recombinant human trimeric ARG1 enzyme (Homo sapiens, UniProt P05089); test: Direct binding HTRF assay, human trimeric ARG1; conditions: purified scFv, FIG. 1B
T2 construct: Avi tag (N); His10 (after a GGG linker) (C); made in house; host or cells: E. coli BL21 (DE3)
T2 sequence (P05089 with tags, fused parts or gaps): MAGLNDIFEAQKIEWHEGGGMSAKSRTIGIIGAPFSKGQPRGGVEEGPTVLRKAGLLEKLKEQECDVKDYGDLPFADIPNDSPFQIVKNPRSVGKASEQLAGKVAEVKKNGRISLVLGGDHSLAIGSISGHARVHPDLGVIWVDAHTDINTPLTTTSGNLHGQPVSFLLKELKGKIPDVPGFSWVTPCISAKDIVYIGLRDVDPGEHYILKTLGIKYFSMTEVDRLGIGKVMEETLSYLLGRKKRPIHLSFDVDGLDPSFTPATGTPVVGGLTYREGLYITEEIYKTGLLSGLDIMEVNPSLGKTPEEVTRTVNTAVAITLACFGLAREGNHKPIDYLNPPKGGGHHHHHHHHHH

ARG2 = biological target: T3, ARG2 (Homo sapiens, UniProt P78540); test: Size-exclusion chromatography of ARG2-Fab binding stoichiometry; design: human ARG2 (aa23-354); His10 (C); made in house; host or cells: E. coli BL21 (DE3); conditions: FIG. 23A
T3 sequence (P78540 23-354): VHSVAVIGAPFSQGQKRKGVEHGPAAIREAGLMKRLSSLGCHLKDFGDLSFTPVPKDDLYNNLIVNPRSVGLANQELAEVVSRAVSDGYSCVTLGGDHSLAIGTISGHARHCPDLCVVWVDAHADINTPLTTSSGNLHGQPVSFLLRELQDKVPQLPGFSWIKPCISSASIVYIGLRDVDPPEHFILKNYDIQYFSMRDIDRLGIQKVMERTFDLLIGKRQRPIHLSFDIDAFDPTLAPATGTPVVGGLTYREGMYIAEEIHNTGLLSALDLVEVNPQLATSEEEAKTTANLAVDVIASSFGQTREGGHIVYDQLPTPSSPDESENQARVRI
Description: ARG2 and Fabs were analysed at concentrations of 8 μM (referring to monomers) in SEC buffer containing 25 mM tris at pH 7.4 and 150 mM NaCl. ARG2-Fab complexes were formed by mixing both ARG2 and Fabs at concentrations of 8 μM (referring to monomers) in SEC buffer and incubation on ice for 1 h. For size-exclusion chromatography, […] of sample were injected into a 100 μl loop connected to a Superose 6 Increase 10/300 GL column (GE Healthcare) which was mounted to an AKTAexpress FPLC system (GE Healthcare). The column was equilibrated in SEC buffer, and SEC was performed at a flow rate of 0.5 ml/min. Molecular-weight estimates are based on the retention volumes seen for β-amylase, bovine serum albumin and carbonic anhydrase, which were analysed on the same FPLC system under identical conditions.

| Molecule | binding to biotinylated recombinant human trimeric ARG2 enzyme [1] | binding to biotinylated recombinant human trimeric ARG1 enzyme [2] | size-exclusion peak of 1:1 molar mixture of ARG2 and Fab (ARG2; 8 μM each) [kDa] | Fabs bound to one ARG2 trimer (ARG2; from size-exclusion profile) |
| --- | --- | --- | --- | --- |
| C0020065: anti-ARG2 antibody, alternate lead isolation clone, VH SEQ ID NO: 2, VL SEQ ID NO: 7 (antibody, listed as Homo sapiens, V domains shown, C0020065) VH: GVNLRESGGGVVQPGRSLRLSCAASGFTFSSYAMHWVRQAPGKGLEWVAVISYDGSNKYYVDSVKGRFTISRDNSKNTLYLQMNSLRAEDTAVYYCARDSSQLWFDYWGRGTLVTVSS VL: QSVVTQPPSVSGAPGQRVTISCTGSSSNIGTGYDVHWYQQLPGTAPKLLIYGNSNRPSGVPDRFSGSKSGTSASLAITGLQAEDEADYYCQSYDSSLSGSVVFGGGTQLTVL | bound | no binding | – | – |
| C0021139: anti-ARG2 antibody, VH SEQ ID NO: 212, VL SEQ ID NO: 217 (antibody, listed as Homo sapiens, V domains shown, C0021139) VH: EVQLLESGGGLVQPGGSLRLSCAASGFTFQYDYQVWVRQAPGKGLEWVSAISGSGGSTYYADSVKGRFTISRDNSKNTLYLQMNSLRAEDTAVYYCARLRADLGLYMDLWGRGTLVTVSS VL: QSVLTQPPSVSAAPGQKVTISCSGSSSNIGNHYVSWYQQLPGTAPKLLIYDNSERTSGIPDRFSGSKSGTSATLGITGLQTGDEADYYCGTWDELTSNLVFGGGTKLTVL | – | – | 275 | three Fabs |
